{
  "source": "paper doi:10.1101/2025.11.10.687524",
  "about": "(bioRxiv, 2025)",
  "binders": {"B1": {"name": "SurA(N336C)-His10 (disulfide-crosslinked SurA–BAM complex 1) (natural protein)", "chain": "APQVVDKVAAVVNNGVVLESDVDGLMQSVKLNAAQARQQLPDDATLRHQIMERLIMDQIILQMGQKMGVKISDEQLDQAIANIAKQNNMTLDQMRSRLAYDGLNYNTYRNQIRKEMIISEVRNNEVRRRITILPQEVESLAQQVGNQNDASTELNLSHILIPLPENPTSDQVNEAESQARAIVDQARNGADFGKLAIAHSADQQALNGGQMGWGRIQELPGIFAQALSTAKKGDIVGPIRSGVGFHILKVNDLRGESKNISVTEVHARHILLKPSPIMTDEQARVKLEQIAADIKSGKTTFAAAAKEFSQDPGSACQGGDLGWATPDIFDPAFRDALTRLNKGQMSAPVHSSFGWHLIELLDTRNVDKTDAAQKDRAYRMLMNRKFSEEAASWMQEQRASAYVKILSN"}, "B2": {"name": "SurA(I297C)-His10 (disulfide-crosslinked SurA–BAM complex 2) (natural protein)", "chain": "B1 chain with I277C, C316N"}},
  "key": {"[1]": {"molecular_target": "BamA(S274C/C690S/C700S) (disulfide-crosslinked SurA–BAM complex 1) (E. coli, UniProt P0A940 21-810, S274C | C690S | C700S)", "test": "cryo-EM structure"}, "[2]": {"molecular_target": "BamA(C690S/C700S) (disulfide-crosslinked SurA–BAM complex 2) (E. coli, UniProt P0A940 21-810, C690S | C700S)", "test": "cryo-EM structure"}},
  "note": "Changes are numbered by the printed parent chain. In names and notes the source's numbering stands.",
  "data": [
    {"binder": "B1", "values": [
      {"measurement": "binding result", "setting": "[1]", "value": "binds"}
    ]},
    {"binder": "B2", "values": [
      {"measurement": "binding result", "setting": "[2]", "value": "binds"}
    ]}
  ]
}
